# Laboratory results taken from the RNAGym collection of RNA variant scans (doi:10.1073/pnas.2313332121).
# Variants at the floor of the assay were thinned out.
# B1: TPR 5TU (parent)
# chain: GGAUCUUCUCGAUCUAACAAAAAAGACAAAUCUGCCACAAAGCUUGAGAGCAUCUUCGGAUGCAGAGGCGGCAGCCUUCGGUGGCGCGAUAGCGCCAACGUUCUCAACUAUGACACGCAAAACGCGUGCUCCGUUGAAUGGAGUUUAUCAUG
# Variants of: B1
# Test: polymerase ribozyme fitness, log enrichment relative to wild type (log ratio); higher = more active; in vitro selection for triplet polymerase activity
# How it was run: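 Input and output libraries were sequenced on Illumina after a single in vitro selection round, run in triplicate on PCR-built, transcribed mutant libraries of each subunit of a heterodimeric triplet polymerase ribozyme. Selection annealed libraries to a biotinylated primer, the partner subunit and triplets, incubated them frozen at −7 °C, then gel-excised extended constructs for streptavidin-bead capture and RT-PCR. Genotypes with ≥10 input reads and ≥1 read per output were kept. Fitness is the logarithm, taken in base 2, of genotype enrichment divided by wild-type enrichment, using inverse-variance-weighted replicate averages.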
row,Variant,polymerase ribozyme fitness (log ratio)
1,C99U G126A G143U,-3.55
2,A22U C35A U55A U56G G74A C85G,≤ -4.2
3,C35G A37C A52G G86U A97G,-4.2
4,A47U C85U A150C,≤ -4.2
5,G94A U101C G136C A137G U151A,≤ -4.2
6,A41G C57A G59A G68U,≤ -4.2
7,A16U A24U U33A C35U C87G,-4.15
8,A12G G25A C87G C116A U148G,≤ -4.2
9,A16C G81A,-0.894
10,C8A G34C U45A G50A U55A G74A A91G U102G G140C G141A,≤ -4.2
11,A52C G80C G84U C93U,≤ -4.2
12,C114U G124C,-4.11
13,A12G A37C C87U G92A A119U G136A,-0.359
14,A21C C32G G50A C93U A119U,≤ -4.2
15,A3C U6G A23U A39G U44A A89G C116G,≤ -4.2
16,A22U C96U A121U U139A,-4.03
17,C96A C125G,-0.535
18,G58A C93A G112C,-4.12
19,U9A A22U A39G C96G U109G,≤ -4.2
20,A17C A24U C114A,-3.86
21,C51G C95U,-2.73

row,Variant,polymerase ribozyme fitness (log ratio)
1,C5G G141C,-0.606
2,A17G C87A C103U,≤ -4.2
3,A24G U44A A49C U82G A122U G140C C149U,-4.02
4,C69U C87U G92C A150G,-3.27
5,A3C U6G C57U G74C C149U,≤ -4.2
6,C95U C96U C118U C125A C129G,≤ -4.2
7,U77G G84A,≤ -4.2
8,U53G G68A,≤ -4.2
9,C85G G133C,-2.86
10,G88C G141C,-3.84
11,C27A U101G,-3.63
12,C32U A37G G46U U77C G86C A115G A119U,≤ -4.2
13,A17U A29U C93A G141U,≤ -4.2
14,U7A A29C A60U C76G C95U G133A G141A,≤ -4.2
15,U55A G62A C96U,-2.14
16,C99U A115C,-1.19
17,C93G C114U,-3.97
18,A12C A21G C36A G48A C93A U135G,≤ -4.2
19,A16U U82G C87U A122C,-2.32
20,C35A A91G C105U,-4.17
21,U55A G81A,-1.9

row,Variant,polymerase ribozyme fitness (log ratio)
1,C38G U44A G65C,≤ -4.2
2,A3U A17C A47U C93U U104A,-1.38
3,A3C U31G A52C U56A U61G A91C C108G A113U,≤ -4.2
4,G50A C125A,-1.79
5,A49U G59A A122U,-0.783
6,U6G G11C C14U C93A,≤ -4.2
7,G80A C99G U127C,-2.19
8,C87U U144G,-0.986
9,C38U A47G U53A G141C,-2.86
10,U53A C85U A137G A142C,-3.93
11,C51U G58C G62U C69U C96G,-3.67
12,G58C C95U,-0.651
13,U31G,0.749
14,C35U A39C U56C C63U A110C A115G A121G G126A,≤ -4.2
15,U56C C93U C114G A119G,-3.79
16,A24G A91U,≤ -4.2
17,A12G A73U C96A U109A C116U,-2.66
18,C5G A39U C57A G59U G83U C103G C116U,≤ -4.2
19,A19U G50U,-0.0269
20,U61A A73G C93U C125A,-3.14
21,C43A C87A A89G C93U,≤ -4.2

row,Variant,polymerase ribozyme fitness (log ratio)
1,C14G A47C,-2.35
2,U6C U7G G59U G68C U82C G136U,≤ -4.2
3,A73U A91U A106C G136C,≤ -4.2
4,A89U C96U C118U A122G U139G,-0.0743
5,C18U G86U,-2.18
6,G46U A47C G58U C108U A119U G128U,≤ -4.2
7,G48U U77C C79G G143U,≤ -4.2
8,G50A G94U,-3.07
9,G59C A60U G68A C75A C108A,-4.15
10,A119G C125A,0.204
11,A28U C87G U127A G133C U139A,-4.15
12,G11C A23U G48C C79A U82G G94U A142U,≤ -4.2
13,U102C C131U U134G,-4.13
14,A49G G117A,-0.467
15,A22C C57U A60U C69G,-1.7
16,A21C G84U U90C C116A A137C A138G,≤ -4.2
17,G94C U151A,-3.85
18,A39C C87U,-2.12
19,A47G C87A U90G A98G C99A G117C C149A,≤ -4.2
20,G50A A52C C72G A97C C99A U139C G143A,≤ -4.2
21,A21U A29C G92A C99U G117U U130G,-3.76
